Assay results published in patent US20040146906A1.

Target: PTH receptor 1 on ROS 17/2.8 rat osteoblast cells (rat) (UniProt P25961)
Assay: cell-based or functional assay

Chain of UniProt P25961 (P25961 27-591): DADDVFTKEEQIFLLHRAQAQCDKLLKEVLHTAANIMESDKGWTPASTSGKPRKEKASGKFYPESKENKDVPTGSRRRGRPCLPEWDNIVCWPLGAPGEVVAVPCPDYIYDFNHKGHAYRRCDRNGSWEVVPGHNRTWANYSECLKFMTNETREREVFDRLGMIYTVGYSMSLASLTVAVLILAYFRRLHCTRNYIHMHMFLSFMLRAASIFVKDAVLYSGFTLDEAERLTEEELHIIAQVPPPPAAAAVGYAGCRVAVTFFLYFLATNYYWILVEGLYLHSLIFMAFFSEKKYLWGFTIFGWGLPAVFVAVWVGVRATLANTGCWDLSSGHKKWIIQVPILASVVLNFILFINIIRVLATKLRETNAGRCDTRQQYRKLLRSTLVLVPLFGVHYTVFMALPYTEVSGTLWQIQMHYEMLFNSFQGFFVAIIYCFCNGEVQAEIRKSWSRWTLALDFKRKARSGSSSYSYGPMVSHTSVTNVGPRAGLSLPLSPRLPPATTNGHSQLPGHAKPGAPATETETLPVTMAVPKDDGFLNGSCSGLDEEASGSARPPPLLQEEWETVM

With “human PTH (1-34) (from UniProt P01270 32-65) (peptide)” the PAIGB expression (fold induction) was 6 fold.
